T1: TNKS2 ARC4 (Homo sapiens, UniProt Q9H2K2)
T1 construct: GST (cleaved yes); made in house; host or cells: E. coli C41(DE3)
T1 sequence (Q9H2K2 488-649): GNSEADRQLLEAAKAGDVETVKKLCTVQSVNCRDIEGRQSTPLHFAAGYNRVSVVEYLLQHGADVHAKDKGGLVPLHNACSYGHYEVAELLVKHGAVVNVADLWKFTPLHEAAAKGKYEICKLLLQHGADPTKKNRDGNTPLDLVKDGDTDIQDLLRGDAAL

T2: human tankyrase 2 ankyrin repeat cluster 4 (TNKS2 ARC4, residues 488-649) (human, UniProt Q9H2K2 488-649)
T2 sequence (looked up): T1 sequence (Q9H2K2 488-649)

T3: human tankyrase 1 ankyrin repeat clusters 2-3 (TNKS1 ARC2-3, residues 315-662) (human, UniProt O95271 315-662)
T3 sequence (looked up): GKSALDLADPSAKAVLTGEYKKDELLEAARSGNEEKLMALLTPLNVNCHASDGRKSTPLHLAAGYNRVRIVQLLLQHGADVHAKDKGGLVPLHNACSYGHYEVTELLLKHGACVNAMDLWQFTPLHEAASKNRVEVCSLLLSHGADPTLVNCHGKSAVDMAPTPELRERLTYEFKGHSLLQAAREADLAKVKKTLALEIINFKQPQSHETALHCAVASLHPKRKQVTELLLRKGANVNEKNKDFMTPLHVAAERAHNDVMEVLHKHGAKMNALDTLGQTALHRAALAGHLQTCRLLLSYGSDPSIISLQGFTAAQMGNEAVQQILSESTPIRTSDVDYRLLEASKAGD

T4: TNKS1 ARC2-3 (Homo sapiens, UniProt O95271)
T4 construct: His6 (cleaved yes); made in house; host or cells: E. coli C41(DE3)
T4 sequence (O95271 315-662): T3 sequence (looked up)

B1: T-cp4n2m3c-Antp (peptide)
chain 1: REXGDGXE
chain 2: RQIKIWFQNRRMKWKK
modifications: 5-TAMRA-Ahx on the N-terminus; X3 and X7 (n2, 2 CH2): azido unnatural amino acids cross-linked through two triazoles by linker m3c, which carries the second chain | two Ahx spacers between the m3c linker and the N-terminus
B2: cp4n2m3 (peptide)
chain: Ac-RE[Aha]GDG[Aha]E
modifications: triazole 3-7 via m3; reading uncertain
B3: T-cp4n2m3c-R6 (peptide)
chain 1: {5‑TAMRA-Ahx}-RE[Aha]GDG[Aha]E
chain 2: RRRRRR
modifications: triazole I:3-I:7 via m3c; not fully specified (N-terminus); reading uncertain; also: chain 2 N-terminus conjugated to m3c linker of chain 1
B4: human Axin1 residues 1-80 (domain or fragment, UniProt O15169 1-80, looked up)
chain: MNIQEQGFPLDLGASFTEDAPRPPVPGEEGELVSTDPRPASYSFCSGKGVGIKGETSTATPRRSDLDLGYEPEGSASPTP
B5: hAxin1_1-80: fragment of human Axin1, residues 1–80, containing both TNKS-binding motifs (protein)
chain: B4 chain
modifications: left off: GST, end not stated, cleaved
B6: TNKS2 ARC4 (488–649) (domain or fragment, human, UniProt Q9H2K2 488-649, looked up)
chain: T1 sequence (Q9H2K2 488-649)
B7: T-pep1 (TAMRA-Ahx-REAGDGEE) (peptide)
peptide: {5‑TAMRA-Ahx}-REAGDGEE
B8: TNKS1 ARC2–3 (315–662) (domain or fragment, human, UniProt O95271 315-662, looked up)
chain: T3 sequence (looked up)

Bridge positions count the residues as written; N and C are the ends. Square brackets hold non-standard residues; d marks the D form. Ends that are not written are not given here. Peptide text beside a SMILES is read from it. I, II: the chains in the order shown. * marks the point of attachment. 5‑TAMRA = CN(C)c1ccc2c(-c3ccc(C(=O)*)cc3C(=O)[O-])c3ccc(N(C)C)cc3[o+]c2c1; Lys(N3) = [N-]=[N+]=NCCCC[C@H](N)C(=O)O; Aha = [N-]=[N+]=NCC[C@H](N)C(=O)O; m3c = not defined here; m3 = not defined here; Ahx = NCCCCCC(=O)O

One assay has as its target T1, TNKS2 ARC4. In words: Competitive fluorescence polarization, TNKS2 ARC4. It is filed as binding. The conditions noted are these: unlabeled peptides; tracer T-pep1 bound to ARC4; read-out: Kd TNKS2 ARC4 (Competition FP). Here is the method:
Fluorescence polarization (FP) assays were performed in 96-well half area black microplates (Corning) on a CLARIOstar microplate reader (BMG labtech) using excitation filter 540–20 nm, dichroic mirror LP 566 nm, and emission filter 590–20 nm. All peptides were dissolved in water as stock solutions. For direct FP assays, the stock concentrations of the TAMRA-labeled peptides were determined based on the 5-TAMRA absorbance at 556 nm (extinction coefficient ε = 89,000 M^–1 cm^–1) measured on a NanoDrop 2000 (Thermo Scientific) and verified by amino acid analysis (Department of Biochemistry, University of Cambridge). […] Data were analyzed on GraphPad Prism 5.0, and the dissociation constant, Kd, was determined using the following equation assuming the ratio between the concentration of the bound and that of the total TAMRA-labeled peptide is proportional to the fluorescence polarization [drawing 1] where FP is the fluorescence polarization, B is the minimum FP, T is the maximum FP, L0 is the total concentration of TAMRA-labeled peptide, P0 is the total concentration of protein, and Kd is the dissociation constant.
For the competition FP assays, the stock concentrations of the unlabeled macrocyclized peptides or the Axin1 fragments were determined by amino acid analysis. […]
For orientation: Polarisation of emitted light reports the rotation of a fluorescent probe.

Assay [1] has as its target T2, human tankyrase 2 ankyrin repeat …. Put plainly: fluorescence polarisation; direct: TNKS2 ARC4 or TNKS1 ARC2-3 diluted 2-fold serially (40-0 uM, 50 uL) and mixed with TAMRA-labeled peptide (20 nM, 50 uL); 50 mM HEPES pH 7.5, 300 mM NaCl, 2 mM DTT, 0.05% Tween 20; 30 min, 25 C. The conditions noted are these: both partners purified.
The target in the assay “TNKS2 ARC4 (488–649)” is B6. In words: pull-down; GST-Axin1 1–80 on glutathione beads incubated with TNKS2 ARC4 (89 μM), washed, then incubated 0.5 h at room temperature with unlabeled peptide (0–200 μM); wash buffer 50 mM Tris·HCl pH 8.0, 500 mM NaCl, 2 mM DTT; SDS-PAGE, Coomassie, densitometry. The conditions noted are these: both partners purified.
Assay [2] addresses T3, human tankyrase 1 ankyrin repeat …. Put plainly: ITC; TNKS2 ARC4 (160-280 uM) or TNKS1 ARC2-3 (60-150 uM) titrated into the cell with unlabeled peptide (5-15 uM) or Axin1 fragment (8-12 uM); PBS, 0.5 mM TCEP; 25 C; one-site model; stoichiometry = TNKS per peptide or Axin1. The conditions noted are these: both partners purified. On the technique in general: Isothermal titration calorimetry measures the heat released or taken up as one component is titrated into another.

In assay [3] the target is T2, human tankyrase 2 ankyrin repeat …. The assay is described as above. The conditions noted are these: both partners purified.
Assay [4] has the same target. Put plainly: fluorescence polarisation; competition: unlabeled peptide or Axin1 fragment diluted 2-fold serially against TAMRA-labeled pep1 (20 nM) with TNKS2 ARC4 (3 uM); PBS, 0.05% Tween 20; 30 min, 25 C. The conditions noted are these: both partners purified.
The next assay concerns the target T4, TNKS1 ARC2-3. In words: Isothermal titration calorimetry, TNKS1 ARC2-3. The conditions noted are these: unlabeled peptides and Axin proteins. Type of assay: binding. Here is the method: All ITC experiments were performed on a MicroCal iTC200 (GE Healthcare) at 25 °C. TNKS2 ARC4 (488–649), TNKS1 ARC2–3 (315–662), and Axin1 fragments were dialyzed overnight in PBS and 0.5 mM TCEP. Unlabeled peptides were used in the experiments. The peptide was diluted from the stock solution using the same dialysis buffer, and the effect of buffer dilution was accounted for when preparing TNKS samples. TNKS2 ARC4 (160–280 μM) or TNKS1 ARC2–3 (60–150 μM) was titrated into the sample cell containing the peptide (5–15 μM) or Axin1 fragments (8–12 μM) with an initial injection of 0.2 μL over 0.4 s followed by 19 injections of 2 μL over 4 s with a spacing of 60 s, except for TNKS2 ARC4 and Axin1 fragments for which the spacing was 70 s. Control experiments were performed using the same settings as above except that the cell was filled with dialysis buffer. Data were fitted with nonlinear regression using a one-site binding model from Origin 7.0 (MicroCal, Inc.).[90]

A further assay concerns the target T-cp4n2m3c. In words: fluorescence polarisation; direct FP; TAMRA-labeled peptide (20 nM, 50 μL) mixed with serially diluted TNKS2 ARC4 (40–0 μM, 50 μL); 50 mM HEPES pH 7.5, 300 mM NaCl, 2 mM DTT, 0.05% Tween 20; 30 min at 25 °C.
A further assay has as its target human Axin1_1–80 (human, UniProt O15169 1-80). Put plainly: ITC; TNKS2 ARC4 (160–280 μM) or TNKS1 ARC2–3 (60–150 μM) titrated into the cell holding peptide (5–15 μM) or Axin1 fragment (8–12 μM); PBS, 0.5 mM TCEP; 25 °C; one-site model. The conditions noted are these: both partners purified.
Assay [5] addresses T3, human tankyrase 1 ankyrin repeat …. In words: fluorescence polarisation; direct: TNKS2 ARC4 or TNKS1 ARC2-3 diluted 2-fold serially (40-0 uM, 50 uL) and mixed with TAMRA-labeled peptide (20 nM, 50 uL); 50 mM HEPES pH 7.5, 300 mM NaCl, 2 mM DTT, 0.05% Tween 20; 30 min, 25 C. The conditions noted are these: both partners purified.
Assay [6] concerns the target T2, human tankyrase 2 ankyrin repeat …. The description is as above. The conditions noted are these: both partners purified. The source holds these as a separate data set.

Usually Kd stands for a measure of binding affinity in units of concentration. Regarding `CC(=O)N[C@@H](CCCNC(=N)N)C(=O)N[C@@H](CCC(=O)O)C(=O)N[C@@H](CCCCN=[N+]=[N-])C(=O)NCC(=O)N[C@@H](CC(=O)O)C(=O)NCC(=O)N[C@@H](CCCCN=[N+]=[N-])C(=O)N[C@@H](CCC(=O)O)C(N)=O` [cp4n4] (Ac-RE[Lys(N3)]GDG[Lys(N3)]E-NH2), the Kd on TNKS2 ARC4 was found to be 1400 ± 100 nM.
For the molecule `CC(=O)N[C@@H](CCCNC(=N)N)C(=O)N[C@@H](CCC(=O)O)C(=O)N[C@@H](CCCCN=[N+]=[N-])C(=O)NCC(=O)N[C@@H](CC(=O)O)C(=O)NCC(=O)N[C@@H](CCC(=O)O)C(=O)N[C@@H](CCCCN=[N+]=[N-])C(N)=O` [cp5n4] (Ac-RE[Lys(N3)]GDGE[Lys(N3)]-NH2), on TNKS2 ARC4, the Kd worked out at 2600 ± 100 nM.
Regarding B1, the Kd in assay [1] was 490 ± 20 nM.
For orientation: IC50 means the concentration that gives 50% inhibition. A higher IC50 goes with lower potency. In the case of B2, in the assay with TNKS2 ARC4 (488–649), the IC50 is approximately 20000 nM.
B3 showed a Kd in [1] of 950 ± 20 nM.
Broadly, the stoichiometry N is the number of molecules, sites or subunits per partner or assembly. Turning to B4, the Kd in assay [2] was determined as 1590 ± 90 nM; in assay [3], 2620 ± 360 nM; in [4], 2780 ± 220 nM. Besides, the entries for the “stoichiometry N” value in assay [2] and in assay [3] were 2.1 ± 0.02 and 1 ± 0.03, respectively.
Consider B5, for which the “Stoichiometry (ITC), TNKS1 ARC2-3” value with TNKS1 ARC2-3 is recorded as “two”.
In the assay with T-cp4n2m3c, B6 registered a fold higher affinity than T-pep1 of 2 fold. In the assay with human Axin1_1–80, the “stoichiometry N” value stood at 1.
As for B7, the Kd stood at 190 ± 4 nM in [5] and 780 ± 60 nM in assay [6].
Turning to B8, the “stoichiometry N” value with human Axin1_1–80 was 2.

The values are drawn from publication PMC5358875 (Journal of the American Chemical Society, 2017).
